Here are results for 1 molecule from patent US20230288411A1, “POLYPEPTIDE, MULTIMER, SOLID PHASE, MEASUREMENT METHOD FOR TEST SUBSTANCE, AND REAGENT KIT” (SYSMEX CORPORATION, priority 2020, published 2023).

For one experiment, the system named is L-biotin-labeled albumin. Description: SPR (Biacore T200) binding evaluation to L-biotin-labeled albumin. Also on record: species or system bovine. As to conditions: analyte flowed at 30 μL/min up to 100 nM, single cycle method, albumin immobilized on sensor chip. As for the experimental part: (§1) A binding ability of D-streptavidin obtained in Example 1 to D-biotin as a natural form and L-biotin as an optical isomer of D-biotin was evaluated by an intermolecular interaction analyzer (Biacore T200) using SPR as a measurement principle.
Similarly, L-biotin-labeled albumin was prepared using L-biotin-AC5-OSu [see (Amidation of L-biotin) described in Example 3 above].
Bovine serum albumin was immobilized on flow cells 1 and 3 of a CMS sensor chip (manufactured by Cytiva) of a Biacore T200 system at a target level of 400 RU by an amine coupling method with an amine coupling kit (Cytiva). Further, L-biotin-labeled albumin and D-biotin-labeled albumin were immobilized at a target level of 400 RU to flow cells 2 and 4, respectively, similarly by an amine coupling method. Blocking was performed in each flow cell with 1 M ethanolamine solution, pH 8.5 (manufactured by Cytiva). […]
(§2) Using HBS-EP+(manufactured by Cytiva) as a running buffer, the prepared D-tamavidin (trademark) 2 was flowed into each flow cell at a flow rate of 30 μL/min in the range of 100 pM to 100 nM by a single cycle method, and binding and dissociation to D-biotin or L-biotin was evaluated by Biacore T200 Evaluation Software (manufactured by Cytiva).
For orientation: In SPR one partner is held on a chip, and binding of the other changes the refractive index at the surface.

The next experiment deals with D-biotin-labeled albumin. Description: SPR (Biacore T200) binding evaluation to D-biotin-labeled albumin. As to conditions: analyte flowed at 30 μL/min up to 100 nM, single cycle method, albumin immobilized on sensor chip. Set-up: species or system bovine. As for the experimental part: as §1
An N,N-dimethylformamide solution (16.3 μL) containing 10 mg/mL D-biotin-AC5-OSu (manufactured by DOJINDO LABORATORIES) was added to 2.8 mL of 50 mg/mL bovine serum albumin/0.1 M phosphate buffer solution (pH 7.5), and the mixture was stirred, then allowed to stand at 35° C. for 1 hour. Thereafter, desalting was performed by PD-10 (17085101, manufactured by Cytiva) equilibrated with a 0.1 M phosphate buffer (pH 7.5), and D-biotin-labeled albumin was recovered. The number of labeled D-biotin per molecule of albumin by HABA method was 0.4.
Bovine serum albumin was immobilized on flow cells 1 and 3 of a CMS sensor chip (manufactured by Cytiva) of a Biacore T200 system at a target level of 400 RU by an amine coupling method with an amine coupling kit (Cytiva). […]
as §2

Entries after “also recorded” stand apart in the source; their conditions may differ.

B1: D-tamavidin (trademark) 2: avidin-like protein derived from Pleurotus cornucopiae consisting of D amino acids, 2nd to 141st amino acid sequence of SEQ ID NO: 4 (peptide, listed as Pleurotus cornucopiae)
chain: SDVQSSLTGTWYNELNSKMELTANKDGTLTGKYLSKVGDVYVPYPLSGRYNLQPPAGQGVALGWAVSWENSKIHSATTWSGQFFSESSPVILTQWLLSSSTARGDVWESTLVGNDSFTKTAPTEQQIAHAQLHCRAPRLK
modifications: D-amino acids
B1: the “binding to L-biotin-labeled albumin (SPR sensorgram)” value in the experiment on L-biotin-labeled albumin is “increase in the SPR signal was observed; also recorded: binds”. Further, the “binding to D-biotin-labeled albumin (SPR sensorgram)” value with D-biotin-labeled albumin is “No increase in SPR signal; also recorded: does not substantially bind”.
